Measurements published in patent publication US20190352343A1 (AUCKLAND UNISERVICES, published 2019).

Experiments:
[1] = biological target: Cpe0147^439-563 truncated protein domain (Clostridium perfringens); assay: SDS-PAGE, ester bond ligation in the presence of calcium
[2] = biological target: Cpe0147^439-563 truncated protein domain (Clostridium perfringens); assay: SDS-PAGE, ester bond ligation in the presence of glycerol

Cpe0147^565-587 synthetic peptide
percent of protein converted (ester bond formed) [1]: 40%
percent of protein converted (ester bond formed) [2]: 70%
